The text below walks through data of patent publication CN117624352A (UNIV XIAMEN, dated 2024).

The target of assay [1] is T1, Tmem176b表达纯化抗原142-196aa xy02b-hFc-6His(Abclonal) (mouse, UniProt Q9R1Q6 142-196).
T1 construct: range 142-196; also called 体外表达纯化抗原Tmem176b; Tmem176b抗原; not shown: hFc of the xy02b-hFc-6His vector; 6His tag
T1 sequence (looked up): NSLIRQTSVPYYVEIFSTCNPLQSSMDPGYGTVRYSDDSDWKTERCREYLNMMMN
The assay can be described thus: Biacore (SPR); antigen coupled to the chip, 6E8 as analyte at 1.5625-50 nM; mean of 3 runs. (In general: SPR reads the build-up and loss of mass on a sensor chip optically.)

In assay [2] the target is T1, Tmem176b表达纯化抗原142-196aa …. Put plainly: Capture ELISA; antibody coated at 2 μg/mL, antigen titrated from 0.1 μg/ml in 3-fold steps. Background: In an ELISA, binding on a coated surface is turned into a signal by an enzyme label.

B1: Tmem176b单克隆抗体6E8 (antibody, V domains shown)
VH: QSVEESGGRLLKPDETLTLTCTVSGFSLSSYAMSWVRQAPGKGLEWIGIISIRGNTYYASWAKGRFTISKTSTTVDLKITSPTTEDTATYFCARNTLYSSGWGGSDLWGQGTLVTVSS
VL: AQVLTQTPSPVSAAVGGTVTINCQASQSVYNNNNLAWYQQKPGQPPKLLIYYASTLASGVSSRFKGSGSGTQFTLTISGVQCDDAATYYCQGEFSCSSADCNAFGGGTEVVVKG
notes: Recombinant rabbit monoclonal antibody; also called α-Tmem176b单抗(6E8); Tmem176b单抗6E8
For B1, in assay [1], binding was put at a Kd of 0.959 nM. A half-maximal effect in assay [2] (EC50) was put at 0.893 ng/mL.
